{
  "source": "patent US20240066131A1",
  "about": "(Protagonist Therapeutics, Inc., priority 2020, published 2024)",
  "key": {"[1]": {"molecular_target": "T1, human ferroportin (SLC40A1) fused in frame with GFP, stably expressed in HEK293 cells (human) (UniProt Q9NP59)", "T1 sequence (looked up)": "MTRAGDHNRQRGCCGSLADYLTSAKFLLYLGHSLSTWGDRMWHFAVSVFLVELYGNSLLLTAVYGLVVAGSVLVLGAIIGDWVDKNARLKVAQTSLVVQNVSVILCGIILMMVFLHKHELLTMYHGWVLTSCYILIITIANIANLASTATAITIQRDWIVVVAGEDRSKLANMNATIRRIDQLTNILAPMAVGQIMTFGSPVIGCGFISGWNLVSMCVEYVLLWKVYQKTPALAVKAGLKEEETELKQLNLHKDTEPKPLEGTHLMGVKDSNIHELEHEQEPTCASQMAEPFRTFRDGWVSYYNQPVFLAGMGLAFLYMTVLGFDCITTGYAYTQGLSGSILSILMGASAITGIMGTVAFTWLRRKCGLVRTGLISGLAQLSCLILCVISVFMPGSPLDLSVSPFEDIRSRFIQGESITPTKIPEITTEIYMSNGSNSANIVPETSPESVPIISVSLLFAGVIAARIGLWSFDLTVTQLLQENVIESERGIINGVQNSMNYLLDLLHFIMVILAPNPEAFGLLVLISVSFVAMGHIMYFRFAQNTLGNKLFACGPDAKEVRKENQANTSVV", "assay": "cell-based or functional assay"}, "ferroportin [2]": {"molecular_target": "T2, ferroportin (Homo sapiens, UniProt Q9NP59)", "T2 sequence (Q9NP59 1-571)": "T1 sequence (looked up)", "assay": "T47D cell-based ferroportin internalization assay in presence of mouse serum albumin (MSA), AF647 detection peptide, flow cytometry", "parameters": "a human breast carcinoma adherent cell line which endogenously expresses ferroportin; host or cells: T47D", "conditions": "second Table 6D, T47D/MSA data; with mouse serum albumin", "protocol": "The potency of the peptides in causing ferroportin internalization was evaluated in a T47D cell-based assay. […] In this internalization assay, the potency of the test peptides was evaluated in presence of serum albumin which is the main protein component in the blood. T47D cells were maintained in RPMI media (containing required amount of fetal bovine serum) and regularly sub-cultured. […] The test peptide dilution series were allowed to incubate at room temperature for 30 min. Then the media was aspirated from the 96-well cell plate and test peptide dilution series were added. After 1 hr incubation, the media with test peptides was aspirated out and A1F647-conjugated detection peptide was added at fixed concentration of 200 nM. […] The cells were washed again after a 2 hr incubation in preparation for flow cytometry analysis. The Median Fluorescence Intensity (MFI) of the AF647-positive population was measured (after removing dead cells and non-singlets from the analysis). The MFI values were used to generate a dose-response curve and obtain IC50 potencies for the test peptides. The IC50 potencies were calculated by using 4-parameter non-linear fitting function in Graphpad Prism (Table 6D)."}, "ferroportin [3]": {"molecular_target": "T2, ferroportin", "assay": "FPN activity assay: internalization/degradation of ferroportin-GFP in stably transfected HEK293 cells (loss of GFP fluorescence)", "assay_type": "cell-based", "conditions": "Table 6A; read-out: FPN EC50", "protocol": "Following internalization, the ferroporin protein is degraded.\nA retro inverse peptide is a peptide with a reversed sequence in all D amino acids. An example is that Hy-Glu-Thr-His-NH2 becomes Hy-DHis-DThr-DGlu-NH2. The EC50 of these reference compounds for ferroportin internalization/degradation was determined according to the FPN activity assay described above. These peptides served as control standards."}, "[4]": {"molecular_target": "ferroportin endogenously expressed on T47D cells (HTB 133, ATCC) (human) (UniProt Q9NP59)", "assay": "cell-based or functional assay"}, "[5]": {"molecular_target": "T1, human ferroportin (SLC40A1) fused in frame with GFP, stably expressed in HEK293 cells (human)", "assay": "cell-based or functional assay", "remark": "listed apart in the source"}, "[6]": {"molecular_target": "T3, human ferroportin (SLC40A1) fused in frame with GFP, stably expressed in HEK293 cells (human, UniProt Q9NP59 1-571)", "T3 sequence (looked up)": "T1 sequence (looked up)", "assay": "cell-based or functional assay"}, "[7]": {"molecular_target": "T4, ferroportin endogenously expressed on T47D cells (HTB 133, ATCC) (human, UniProt Q9NP59 1-571)", "T4 sequence (looked up)": "T1 sequence (looked up)", "assay": "cell-based or functional assay"}, "[8]": {"molecular_target": "T3, human ferroportin (SLC40A1) fused in …", "assay": "cell-based or functional assay", "remark": "listed apart in the source"}, "[9]": {"molecular_target": "T4, ferroportin endogenously expressed on …", "assay": "cell-based or functional assay", "remark": "listed apart in the source"}},
  "note": "Like-named read-outs stand apart in the source and are kept apart here. Positions of bridges follow the written chain, without caps; N, C: chain ends. Non-standard residues stand in square brackets, D forms with d. Residues, ends and D or L forms follow the SMILES beside them. Groups on a side chain read outwards from the residue. *: point of attachment. C18 diacid = O=C(O)CCCCCCCCCCCCCCCCC(=O)*; Dip = N[C@H](C(=O)O)C(c1ccccc1)c1ccccc1; Palmitoyl = CCCCCCCCCCCCCCCC(=O)*; β3hF = N[C@H](CC(=O)O)Cc1ccccc1; Isovaleryl = CC(C)CC(=O)*; LAc = not defined here; AEEA = NCCOCCOCC(=O)O; Ahx = NCCCCCC(=O)O",
  "data": [
    {"molecule": "RI-Mini Hepcidin: Hy-DPhe-DIle-DCys-DIle-DPro-DPhe-DHis-DThr-DAsp-NH2 (peptide)", "values": [
      {"measurement": "Potency EC50 (nM)", "setting": "[1]", "value": "> 10000", "unit": "nM"}
    ]},
    {"molecule": "CCCCCCCCCCCCCCCC(=O)NCCCCCC(=O)NCCCC[C@H](NC(=O)[C@@H]1CCC(=O)NCCCC[C@H](NC(=O)CC(C)C)C(=O)N[C@@H]([C@@H](C)O)C(=O)N[C@@H](Cc2c[nH]cn2)C(=O)N[C@@H](C(c2ccccc2)c2ccccc2)C(=O)N2CCC[C@H]2C(=O)N[C@@H](C)C(=O)N[C@@H]([C@@H](C)CC)C(=O)N1)C(N)=O", "note": "[compound 309] (Isovaleryl-KTH[Dip]PAIEK([Ahx-Palmitoyl])-NH2; lactam 1-8)", "values": [
      {"measurement": "IC50", "setting": "ferroportin [2]", "value": 31.2, "unit": "nM"}
    ]},
    {"molecule": "CCCCCCCCCCCCCCCC(=O)NCCCCCC(=O)NCCCC[C@H](NC(=O)C[C@H](Cc1ccccc1)NC(=O)[C@H]1CCCCNC(=O)CC[C@H](NC(=O)CC(C)C)C(=O)N[C@@H]([C@@H](C)O)C(=O)N[C@@H](Cc2c[nH]cn2)C(=O)N[C@@H](C(c2ccccc2)c2ccccc2)C(=O)N2CCC[C@H]2C(=O)N[C@@H](C)C(=O)N[C@@H]([C@@H](C)CC)C(=O)N1)C(=O)N[C@@H](CCCNC(=N)N)C(N)=O", "note": "[compound 56] (Isovaleryl-ETH[Dip]PAI[dK][β3hF]K([Ahx-Palmitoyl])R-NH2; lactam 1-8)", "values": [
      {"measurement": "IC50", "setting": "ferroportin [2]", "value": 8.9, "unit": "nM"}
    ]},
    {"molecule": "CC[C@H](C)[C@H](NC(=O)[C@H](C)NC(=O)[C@@H]1CCCN1C(=O)[C@@H](NC(=O)[C@H](Cc1c[nH]cn1)NC(=O)[C@@H](NC(=O)[C@H](CCC(=O)O)NC(=O)CC(C)C)[C@@H](C)O)C(c1ccccc1)c1ccccc1)C(=O)N[C@@H](CCCCNC(=O)COCCOCCNC(=O)COCCOCCNC(=O)CCCCCNC(=O)CCCCCCCCCCCCCCCCC(=O)O)C(=O)N[C@H](CC(N)=O)Cc1ccccc1", "note": "[compound 76] (Isovaleryl-ETH[Dip]PAIK([AEEA-AEEA-Ahx-C18 diacid])[β3hF]-NH2)", "values": [
      {"measurement": "DC50", "setting": "ferroportin [3]", "value": 150, "unit": "nM"},
      {"measurement": "IC50", "setting": "ferroportin [2]", "value": 143, "unit": "nM"}
    ]},
    {"molecule": "Isovaleric Acid-K-T-H-[Dpa]-P-E-[Lys(Ahx_Palm)]-NH2 (peptide)", "values": [
      {"measurement": "T47D MSA IC50", "setting": "[4]", "value": 101, "unit": "nM"}
    ]},
    {"molecule": "Isovaleric Acid-K-T-H-[Dpa]-P-E-[bhPhe]-[Lys(Ahx_Palm)]-NH2 (peptide)", "values": [
      {"measurement": "T47D MSA IC50", "setting": "[4]", "value": 15.6, "unit": "nM"}
    ]},
    {"molecule": "Isovaleric Acid-Dap-T-H-[Dpa]-P-A-I-E-[bhPhe]-[Lys(Ahx_Palm)]-R-NH2 (peptide)", "values": [
      {"measurement": "T47D MSA IC50", "setting": "[4]", "value": 36.4, "unit": "nM"}
    ]},
    {"molecule": "CCCCCCCCCCCCCCCC(=O)NCCCCCC(=O)NCCCC[C@H](NC(=O)[C@@H](NC(=O)[C@H](C)NC(=O)[C@@H]1CCCN1C(=O)[C@H](Cc1ccccc1)NC(=O)[C@H](Cc1c[nH]cn1)NC(=O)[C@@H](NC(=O)[C@H](CCC(=O)O)NC(=O)CC(C)C)[C@@H](C)O)[C@@H](C)CC)C(=O)N[C@@H](Cc1ccccc1)C(=O)N[C@@H](CCC(=O)O)C(=O)N1CCC[C@H]1C(=O)N[C@@H](CCCNC(=N)N)C(=O)N[C@@H](CO)C(=O)N[C@@H](CCCCN)C(=O)NCC(=O)N[C@@H](C)C(=O)N[C@@H](CCCCN)C(N)=O", "note": "[compound 81] (Isovaleryl-ETHFPAIK([Ahx-Palmitoyl])FEPRSKGAK-NH2)", "values": [
      {"measurement": "IC50", "setting": "ferroportin [2]", "value": 11.4, "unit": "nM"}
    ]},
    {"molecule": "H-DTHFPICIF-NH2 (peptide, from a related filing)", "note": "[Mini-Hepcidin 1-9: Hy-…-NH2]", "values": [
      {"measurement": "Potency EC50", "setting": "[5]", "value": 712, "unit": "nM"}
    ]},
    {"molecule": "Isovaleryl-ETH[Dip]PK(Gal)IK([Ahx-Palmitoyl])[β3hF]-NH2", "note": "[Isovaleric Acid-E-T-H-[Dpa]-P-[Lys(Gal-I-[Lys(Ahx_Palm)]-[bhPhe]-NH2]", "values": [
      {"measurement": "FPN IC50", "setting": "[6]", "value": 14.3, "unit": "nM"},
      {"measurement": "T47D IC50", "setting": "[7]", "value": 35.5, "unit": "nM"}
    ]},
    {"molecule": "Isovaleryl-ETH[Dip]PAK(Gal)K([Ahx-Palmitoyl])[β3hF]-NH2", "note": "[Isovaleric Acid-E-T-H-[Dpa]-P-A-[Lys(Gal-[Lys(Ahx_Palm)]-[bhPhe]-NH2]", "values": [
      {"measurement": "FPN IC50", "setting": "[6]", "value": 42, "unit": "nM"},
      {"measurement": "T47D IC50", "setting": "[7]", "value": 19.1, "unit": "nM"}
    ]},
    {"molecule": "Isovaleryl-ETH[Dip]PA[dK](Gal)K([Ahx-Palmitoyl])[β3hF]-NH2", "note": "[Isovaleric Acid-E-T-H-[Dpa]-P-A-d[Lys(Gal-[Lys(Ahx_Palm)]-[bhPhe]-NH2]", "values": [
      {"measurement": "FPN IC50", "setting": "[6]", "value": 30.6, "unit": "nM"},
      {"measurement": "T47D IC50", "setting": "[7]", "value": 4.05, "unit": "nM"}
    ]},
    {"molecule": "Isovaleryl-K(LAc)TH[Dip]PAIK([Ahx-Palmitoyl])[β3hF]-NH2 (reading uncertain)", "note": "[Isovaleric Acid-[Lys(LAc-T-H-[Dpa]-P-A-I-[Lys(Ahx_Palm)]-[bhPhe]-NH2]", "values": [
      {"measurement": "FPN IC50", "setting": "[8]", "value": 27.5, "unit": "nM"},
      {"measurement": "T47D IC50", "setting": "[9]", "value": 284, "unit": "nM"}
    ]},
    {"molecule": "Isovaleryl-K(Glu)TH[Dip]PAIK([Ahx-Palmitoyl])[β3hF]-NH2", "note": "[Isovaleric Acid-[Lys(Glu-T-H-[Dpa]-P-A-I-[Lys(Ahx_Palm)]-[bhPhe]-NH2]", "values": [
      {"measurement": "FPN IC50", "setting": "[8]", "value": 27, "unit": "nM"},
      {"measurement": "T47D IC50", "setting": "[9]", "value": 229, "unit": "nM"}
    ]},
    {"molecule": "Isovaleryl-ETH[Dip]K([Ahx-Palmitoyl])-N_Butyl_Phe", "note": "[Isovaleric Acid-E-T-H-[Dpa]-[Lys(Ahx_Palm)]-N_Butyl_Phe]", "values": [
      {"measurement": "FPN IC50", "setting": "[8]", "value": 62.2, "unit": "nM"},
      {"measurement": "T47D IC50", "setting": "[9]", "value": 464, "unit": "nM"}
    ]}
  ]
}
